Test results as given in patent US20230008694.

Assays:
Assay in all cases: cell_activity
[1] = tested on: GmFAD2_T04-R1 half-TALEN (synthetic (TAL effector-FokI)); settings: pair with T04-L1 at FAD2-1A (FAD2-1B 3.54)
[2] = tested on: GmFAD3_T09-L1 half-TALEN (synthetic (TAL effector-FokI))
[3] = tested on: GmFAD3_T08-L1 half-TALEN (synthetic (TAL effector-FokI))
[4] = tested on: GmFAD2_T02-L1 half-TALEN (synthetic (TAL effector-FokI)); settings: pair with T02-R1 at FAD2-1A (FAD2-1B 1.19)
[5] = tested on: GmFAD3_T09-R1 half-TALEN (synthetic (TAL effector-FokI))
[6] = tested on: GmFAD3_T08-R1 half-TALEN (synthetic (TAL effector-FokI))
[7] = tested on: GmFAD2_T01-R1 half-TALEN (synthetic (TAL effector-FokI)); settings: pair with T01-L1 at FAD2-1A (FAD2-1B 3.41)
[8] = tested on: GmFAD2_T04-L1 half-TALEN (synthetic (TAL effector-FokI)); settings: pair with T04-R1 at FAD2-1A (FAD2-1B 3.54)
[9] = tested on: GmFAD2_T03-R1 half-TALEN (synthetic (TAL effector-FokI)); settings: pair with T03-L1 at FAD2-1A (FAD2-1B 3.94)
[10] = tested on: GmFAD2_T01-L1 half-TALEN (synthetic (TAL effector-FokI)); settings: pair with T01-R1 at FAD2-1A (FAD2-1B 3.41); soybean protoplasts
[11] = tested on: GmFAD2_T02-R1 half-TALEN (synthetic (TAL effector-FokI)); settings: pair with T02-L1 at FAD2-1A (FAD2-1B 1.19)
[12] = tested on: GmFAD2_T03-L1 half-TALEN (synthetic (TAL effector-FokI)); settings: pair with T03-R1 at FAD2-1A (FAD2-1B 3.94)

## TAGGTGGTGGCAATGTA (double strand) [GmFAD2_T04-R1 half-site]
[1]
  activity: 4.67 % NHEJ

## TTAGCCACAGAACTCAC (double strand) [GmFAD3_T08-L1 half-site]
[2]; pair with T08-R1 at FAD3A (FAD3B 11.17), mismatched left half-site
  activity: 12.4 % NHEJ
[3]; pair with T08-R1 at FAD3A (FAD3B 14.57), soybean protoplasts 48 h
  activity: 22.9 % NHEJ

## TATGTTGTTTATGACCT (double strand) [GmFAD2_T02-L1 half-site]
[4]
  activity: 0.91 % NHEJ

## CATGTTGAGAAGGATGA (double strand) [GmFAD3_T09-R1 half-site]
[5]; pair with T09-L1 at FAD3C, with T08-L1 7.60
  activity: 11.3 % NHEJ
[6]; pair with T09-L1 at FAD3C, mismatched right half-site, with T08-L1 3.59
  activity: 5.98 % NHEJ

## TTGAGTTGGCCAACAGT (double strand) [GmFAD2_T01-R1 half-site]
[7]
  activity: 3.95 % NHEJ

## TTGTTTATGACCTTTCA (double strand) [GmFAD2_T04-L1 half-site]
[8]
  activity: 4.67 % NHEJ

## TGGCAATGTAGAAAATG (double strand) [GmFAD2_T03-R1 half-site]
[9]
  activity: 4.91 % NHEJ

## TCTCAAGGGTTCCAAAC (double strand) [GmFAD2_T01-L1 half-site]
[10]
  activity: 3.95 % NHEJ

## TTAGCCACAGGACTCAC (double strand) [GmFAD3_T09-L1 half-site]
[2]; pair with T09-R1 at FAD3C, multiplex T09-L1/T08-R1/T09-R1 21.42 (Table 2)
  activity: 11.3 % NHEJ
[3]; pair with T09-R1 at FAD3C, mismatched left half-site, with T08-R1 3.59
  activity: 7.6 % NHEJ

## CACATTGAGAAGGATGA (double strand) [GmFAD3_T08-R1 half-site]
[5]; pair with T08-L1 at FAD3A (FAD3B 1.80), mismatched right half-site, with T09-L1 6.46 (FAD3B 3.61)
  activity: 6.56 % NHEJ
[6]; pair with T08-L1 at FAD3A (FAD3B 14.57), with T09-L1 12.37 at FAD3A, 11.17 at FAD3B
  activity: 22.9 % NHEJ

## TGGTGGCAATGTAGAAA (double strand) [GmFAD2_T02-R1 half-site]
[11]
  activity: 0.91 % NHEJ

## TCCTATGTTGTTTATGA (double strand) [GmFAD2_T03-L1 half-site]
[12]
  activity: 4.91 % NHEJ
